Target: 16055 gp120 (HIV-1 clade C clinical isolate 16055)
Experiment: ELISA

B1: GM7_TH2 mAb (antibody, V domains shown)
VH: QVQLVQSGTEVKQPGASVKVSCKASGYTFTGYGMNWVRQAHGQRLEWMGWINTETGHPTYAQGFKERFTFSMDTSISTAYLQINSLKPEDTAIYYCARFSGLHSVAVFEYWGQGVLVTVSS
VL: SSGLTQEPALSVALGHTVRMTCQGDSLKTYYATWYQQKPGQVPVLVIYDNNYRPSGIPGRFSVSWSGDTNSLTITAAQVEDEADYYCNSWDSSGTHLLFGGGTRLTVL
  binding result: binds
